Values of other authors, collected in publication PMC3604136.

Biological target: ARNT PAS-B (Homo sapiens) (UniProt P27540)
Sequence (P27540 356-470): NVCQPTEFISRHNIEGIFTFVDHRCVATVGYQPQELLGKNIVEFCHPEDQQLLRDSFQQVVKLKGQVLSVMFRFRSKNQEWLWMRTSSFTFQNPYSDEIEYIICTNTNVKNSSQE

HIF-2α PAS-B, sequence (Q99814 239-350): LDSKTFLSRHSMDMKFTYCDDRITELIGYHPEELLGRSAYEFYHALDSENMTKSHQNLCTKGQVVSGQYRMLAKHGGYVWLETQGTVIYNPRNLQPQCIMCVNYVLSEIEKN

In the case of HIF-2α PAS-B (from UniProt Q99814), the Kd is given as 100 µM.
